In IntAct's records for PubMed 22770219:

B1: Cadherin-1 (Mus musculus), P09803 (parent)
chain: MGARCRSFSALLLLLQVSSWLCQELEPESCSPGFSSEVYTFPVPERHLERGHVLGRVRFEGCTGRPRTAFFSEDSRFKVATDGTITVKRHLKLHKLETSFLVRARDSSHRELSTKVTLKSMGHHHHRHHHRDPASESNPELLMFPSVYPGLRRQKRDWVIPPISCPENEKGEFPKNLVQIKSNRDKETKVFYSITGQGADKPPVGVFIIERETGWLKVTQPLDREAIAKYILYSHAVSSNGEAVEDPMEIVITVTDQNDNRPEFTQEVFEGSVAEGAVPGTSVMKVSATDADDDVNTYNAAIAYTIVSQDPELPHKNMFTVNRDTGVISVLTSGLDRESYPTYTLVVQAADLQGEGLSTTAKAVITVKDINDNAPVFNPSTYQGQVPENEVNARIATLKVTDDDAPNTPAWKAVYTVVNDPDQQFVVVTDPTTNDGILKTAKGLDFEAKQQYILHVRVENEEPFEGSLVPSTATVTVDVVDVNEAPIFMPAERRVEVPEDFGVGQEITSYTAREPDTFMDQKITYRIWRDTANWLEINPETGAIFTRAEMDREDAEHVKNSTYVALIIATDDGSPIATGTGTLLLVLLDVNDNAPIPEPRNMQFCQRNPQPHIITILDPDLPPNTSPFTAELTHGASVNWTIEYNDAAQESLILQPRKDLEIGEYKIHLKLADNQNKDQVTTLDVHVCDCEGTVNNCMKAGIVAAGLQVPAILGILGGILALLILILLLLLFLRRRTVVKEPLLPPDDDTRDNVYYYDEEGGGEEDQDFDLSQLHRGLDARPEVTRNDVAPTLMSVPQYRPRPANPDEIGNFIDENLKAADSDPTAPPYDSLLVFDYEGSGSEAASLSSLNSSESDQDQDYDYLNEWGNRFKKLADMYGGGEDD

Variants of: B1
Conditions: with skp2_human SKP2, Q13309
Chain of skp2_human SKP2, Q13309 (Q13309 whole entry): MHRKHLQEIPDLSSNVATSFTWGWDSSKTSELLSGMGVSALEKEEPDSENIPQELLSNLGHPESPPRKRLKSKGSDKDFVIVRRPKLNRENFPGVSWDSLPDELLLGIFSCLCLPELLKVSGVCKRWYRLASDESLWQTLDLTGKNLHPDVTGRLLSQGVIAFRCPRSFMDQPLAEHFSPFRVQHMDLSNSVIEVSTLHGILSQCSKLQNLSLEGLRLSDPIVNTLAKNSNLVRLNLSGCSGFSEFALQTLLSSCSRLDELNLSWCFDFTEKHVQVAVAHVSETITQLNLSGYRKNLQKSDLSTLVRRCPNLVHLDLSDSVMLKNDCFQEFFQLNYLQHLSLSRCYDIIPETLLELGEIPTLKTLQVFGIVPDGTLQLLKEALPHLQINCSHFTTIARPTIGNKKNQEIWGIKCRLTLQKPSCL

effect of a mutation on the interaction	Variant
decreasing interaction strength	S840A;S842A;S846A;S849A;S852A;S855A
